The experiment concerns the target CD33 antigen (UniProt P20138). The experiment is described as follows: competitive binding against 125I-murine M195 on HL60 cells.
Chain of UniProt P20138 (P20138 18-364 limits assumed): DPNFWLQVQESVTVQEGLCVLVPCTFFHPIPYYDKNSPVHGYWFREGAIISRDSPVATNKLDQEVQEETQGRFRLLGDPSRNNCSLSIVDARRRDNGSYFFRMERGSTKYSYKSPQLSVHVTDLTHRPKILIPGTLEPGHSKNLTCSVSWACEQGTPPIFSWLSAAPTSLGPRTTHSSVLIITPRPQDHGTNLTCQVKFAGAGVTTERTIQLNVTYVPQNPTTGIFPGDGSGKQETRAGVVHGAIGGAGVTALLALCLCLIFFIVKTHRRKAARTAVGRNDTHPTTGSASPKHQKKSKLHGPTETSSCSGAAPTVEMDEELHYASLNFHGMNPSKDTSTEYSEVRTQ

murine M195 antibody: the Ka amounted to 2e+09 M⁻¹.
Molecule aglycosylated chimeric M195 antibody came in with a fold increase in binding affinity against the chimeric antibody of 8 fold.

B1: humanized M195 antibody (antibody, INN chains, looked up, human IgG1, V domains shown)
VH: QVQLVQSGAEVKKPGSSVKVSCKASGYTFTDYNMHWVRQAPGQGLEWIGYIYPYNGGTGYNQKFKSKATITADESTNTAYMELSSLRSEDTAVYYCARGRPAMDYWGQGTLVTVSS
VL: DIQMTQSPSSLSASVGDRVTITCRASESVDNYGISFMNWFQQKPGKAPKLLIYAASNQGSGVPSRFSGSGSGTDFTLTISSLQPDDFATYYCQQSKEVPWTFGQGTKVEIK
As to B1, the fold increase in binding affinity against the chimeric (or murine) antibody turned out to be 8 fold.

Values taken from US6933368.
